We go through three substances from article PMC3433420.

“And” between values parts separate entries of the source, which are not always exact repeats. Equal values may be shown once.

Assay [1] concerns the target ABL2 SH2 domain (human) (UniProt P42684). Description: peptide or protein array; SH2/PTB proteins spotted on aldehyde slides, rhodamine peptide titrated in buffer B (20 mM HEPES, 100 mM KCl, 0.1% Tween-20, 5 mM DTT, pH 7.8), 1 h at room temperature; replicate assays.
For assay [2], the target named is GRAP2 SH2 domain (human) (UniProt O75791). The assay is described as above.
GRAP2 SH2 domain (human), sequence (O75791 58-149): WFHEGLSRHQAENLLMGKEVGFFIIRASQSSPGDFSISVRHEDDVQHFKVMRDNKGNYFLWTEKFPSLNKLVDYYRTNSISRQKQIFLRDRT
Assay [3] addresses GRB10 SH2 domain (human) (UniProt Q13322). The assay is described as above.
In assay [4] the target is HSH2D SH2 domain (human) (UniProt Q96JZ2). Described as above.
HSH2D SH2 domain (human), sequence (Q96JZ2 34-125): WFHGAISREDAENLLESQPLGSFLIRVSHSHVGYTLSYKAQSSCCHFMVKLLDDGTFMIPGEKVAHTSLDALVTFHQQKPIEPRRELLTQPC
In assay [5] the target is LCK SH2 domain (human) (UniProt P06239). Described as above.
LCK SH2 domain (human), sequence (P06239 127-224): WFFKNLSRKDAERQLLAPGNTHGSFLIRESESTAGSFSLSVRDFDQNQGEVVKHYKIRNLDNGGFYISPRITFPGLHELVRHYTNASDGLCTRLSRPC
Assay [6] deals with NCK1 SH2 domain (human) (UniProt P16333). The assay is described as above.
The target of assay [7] is PIK3R1 C-terminal SH2 domain (human). The description is as above.
Assay [8] deals with PIK3R3 tandem SH2 domains (human). The assay is described as above.
Assay [9] concerns the target PTPN11 tandem SH2 domains (human). The description is as above.
In assay [10] the target is RASA1 C-terminal SH2 domain (human). The assay is described as above.
Assay [11] addresses RASA1 N-terminal SH2 domain (human) (UniProt P20936). The description is as above.
The target in assay [12] is SH2B3 SH2 domain (human) (UniProt Q9UQQ2). Described as above.
SH2B3 SH2 domain (human), sequence (Q9UQQ2 364-462): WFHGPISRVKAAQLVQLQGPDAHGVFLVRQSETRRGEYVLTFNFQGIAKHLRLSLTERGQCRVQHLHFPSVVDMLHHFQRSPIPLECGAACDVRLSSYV
The target in assay [13] is SH2D1A SH2 domain (human) (UniProt O60880). Described as above.
SH2D1A SH2 domain (human), sequence (O60880 6-104): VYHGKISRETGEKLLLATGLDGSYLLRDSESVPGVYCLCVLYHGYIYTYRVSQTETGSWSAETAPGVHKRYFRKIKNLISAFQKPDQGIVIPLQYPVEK
The target in assay [14] is SH2D1B SH2 domain (human) (UniProt O14796). Described as above.
SH2D1B SH2 domain (human), sequence (O14796 5-101): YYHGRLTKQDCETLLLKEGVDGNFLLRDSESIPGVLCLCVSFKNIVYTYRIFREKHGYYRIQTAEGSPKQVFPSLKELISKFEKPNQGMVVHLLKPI
The target in assay [15] is SH2D3A SH2 domain (human) (UniProt Q9BRG2). The assay is described as above.
SH2D3A SH2 domain (human), sequence (Q9BRG2 15-114): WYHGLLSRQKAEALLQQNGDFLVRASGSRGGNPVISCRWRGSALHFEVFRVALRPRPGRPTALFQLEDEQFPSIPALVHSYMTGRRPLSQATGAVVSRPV
The target in assay [16] is SH2D3C SH2 domain (human) (UniProt Q8N5H7). Described as above.
SH2D3C SH2 domain (human), sequence (Q8N5H7 220-319): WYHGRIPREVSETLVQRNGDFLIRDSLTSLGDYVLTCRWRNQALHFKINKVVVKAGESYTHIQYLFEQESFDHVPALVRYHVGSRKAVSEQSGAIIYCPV
The target of assay [17] is SHC3 SH2 domain (human) (UniProt Q92529). Described as above.
SHC3 SH2 domain (human), sequence (Q92529 499-590): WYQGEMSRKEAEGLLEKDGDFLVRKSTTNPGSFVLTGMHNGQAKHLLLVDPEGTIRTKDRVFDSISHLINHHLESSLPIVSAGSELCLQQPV
The target of assay [18] is SHF SH2 domain (human) (UniProt Q7M4L6). The description is as above.
SHF SH2 domain (human), sequence (Q7M4L6 323-418): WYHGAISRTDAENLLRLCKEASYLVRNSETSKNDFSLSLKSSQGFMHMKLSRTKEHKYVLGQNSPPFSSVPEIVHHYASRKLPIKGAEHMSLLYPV
The target of assay [19] is SYK N-terminal SH2 domain (human). The assay is described as above.
Assay [20] has as its target YES1 SH2 domain (human) (UniProt P07947). Described as above.
Assay [21] concerns the target ZAP70 C-terminal SH2 domain (human) (UniProt P43403). The description is as above.
For assay [22], the target named is ABL1 SH2 domain (human) (UniProt P00519). Described as above.
ABL1 SH2 domain (human), sequence (P00519 127-217): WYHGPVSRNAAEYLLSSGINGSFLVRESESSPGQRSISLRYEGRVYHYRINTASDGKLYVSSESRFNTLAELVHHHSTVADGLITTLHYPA
Assay [23] has as its target BLK SH2 domain (human) (UniProt P51451). The assay is described as above.
In assay [24] the target is BLNK SH2 domain (human) (UniProt Q8WV28). The assay is described as above.
BLNK SH2 domain (human), sequence (Q8WV28 346-453): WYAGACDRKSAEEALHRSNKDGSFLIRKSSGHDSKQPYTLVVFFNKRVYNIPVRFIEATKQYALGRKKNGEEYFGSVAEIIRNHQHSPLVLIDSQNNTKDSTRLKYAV
In assay [25] the target is BMX SH2 domain (human) (UniProt P51813). The description is as above.
BMX SH2 domain (human), sequence (P51813 296-392): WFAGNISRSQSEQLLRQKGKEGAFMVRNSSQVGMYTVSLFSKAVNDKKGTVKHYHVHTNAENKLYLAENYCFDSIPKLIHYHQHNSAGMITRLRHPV
The target in assay [26] is CRK SH2 domain (human) (UniProt P46108). The assay is described as above.
CRK SH2 domain (human), sequence (P46108 13-118): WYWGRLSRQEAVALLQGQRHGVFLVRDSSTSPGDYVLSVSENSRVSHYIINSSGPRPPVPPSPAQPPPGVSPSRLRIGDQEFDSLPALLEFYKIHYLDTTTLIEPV
The target in assay [27] is CRKL SH2 domain (human) (UniProt P46109). The assay is described as above.
CRKL SH2 domain (human), sequence (P46109 14-102): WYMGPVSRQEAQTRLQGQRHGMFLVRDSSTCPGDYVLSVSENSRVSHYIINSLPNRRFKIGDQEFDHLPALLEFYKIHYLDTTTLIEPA
For assay [28], the target named is HCK SH2 domain (human) (UniProt P08631). The assay is described as above.
HCK SH2 domain (human), sequence (P08631 144-241): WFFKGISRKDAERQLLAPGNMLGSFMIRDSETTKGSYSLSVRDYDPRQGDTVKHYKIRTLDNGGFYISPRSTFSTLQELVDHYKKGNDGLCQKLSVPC
The target of assay [29] is NCK2 SH2 domain (human) (UniProt O43639). Described as above.
NCK2 SH2 domain (human), sequence (O43639 285-380): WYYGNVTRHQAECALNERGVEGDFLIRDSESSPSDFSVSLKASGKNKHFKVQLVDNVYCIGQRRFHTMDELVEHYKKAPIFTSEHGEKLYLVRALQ
Assay [30] addresses PIK3R2 tandem SH2 domains (human) (UniProt O00459). The description is as above.
Assay [31] has as its target PLCG2 tandem SH2 domains (human). The assay is described as above.
The target of assay [32] is SH3BP2 SH2 domain (human) (UniProt P78314). The description is as above.
SH3BP2 SH2 domain (human), sequence (P78314 457-555): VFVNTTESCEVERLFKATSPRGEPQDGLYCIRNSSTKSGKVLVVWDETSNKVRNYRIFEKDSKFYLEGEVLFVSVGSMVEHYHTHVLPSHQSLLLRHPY
Assay [33] has as its target SRC SH2 domain (human) (UniProt P12931). Described as above.
Assay [34] addresses SYK tandem SH2 domains (human). Described as above.
Assay [35] concerns the target TNS4 SH2 domain (human) (UniProt Q8IZW8). The assay is described as above.
Assay [36] addresses ErbB3 Y789 non-phosphorylated peptide, rhodamine-labelled (human). The assay can be described thus: fluorescence polarisation; saturation binding in solution: rhodamine peptide fixed at 10 nM, protein titrated 0.002-10 uM, 20 min at room temperature; assay buffer 20 mM HEPES, 100 mM KCl, 0.1% Tween-20, 5 mM DTT, pH 7.8; apparent KD. For orientation: Fluorescence polarisation rises when a labelled molecule tumbles more slowly, as on binding a larger partner.

ZAP70 C-terminal SH2 domain (human), sequence (P43403 whole entry, the tested form may be a part): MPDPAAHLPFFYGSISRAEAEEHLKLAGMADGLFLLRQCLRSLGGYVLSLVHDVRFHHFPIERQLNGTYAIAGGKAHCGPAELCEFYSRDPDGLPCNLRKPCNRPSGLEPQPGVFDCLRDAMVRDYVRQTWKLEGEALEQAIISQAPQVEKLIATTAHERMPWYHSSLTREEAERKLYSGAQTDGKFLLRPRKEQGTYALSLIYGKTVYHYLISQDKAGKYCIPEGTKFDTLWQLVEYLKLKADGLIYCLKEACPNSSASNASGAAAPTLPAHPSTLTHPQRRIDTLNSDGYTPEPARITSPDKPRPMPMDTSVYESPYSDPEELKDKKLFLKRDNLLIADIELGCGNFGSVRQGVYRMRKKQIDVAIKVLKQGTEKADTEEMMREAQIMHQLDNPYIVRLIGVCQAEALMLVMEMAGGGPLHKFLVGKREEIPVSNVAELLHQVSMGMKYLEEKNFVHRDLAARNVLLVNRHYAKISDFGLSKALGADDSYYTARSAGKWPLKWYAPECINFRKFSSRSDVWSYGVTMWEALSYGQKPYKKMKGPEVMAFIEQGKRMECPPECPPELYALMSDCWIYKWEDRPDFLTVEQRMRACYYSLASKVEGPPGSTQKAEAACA
ABL2 SH2 domain (human), sequence (P42684 173-263): as the sequence (P00519 127-217) above, with N9S, G18L, R35L, A53T, S54A, L58V, S61T, S62A, N67S, I84V counted along it
YES1 SH2 domain (human), sequence (P07947 158-255): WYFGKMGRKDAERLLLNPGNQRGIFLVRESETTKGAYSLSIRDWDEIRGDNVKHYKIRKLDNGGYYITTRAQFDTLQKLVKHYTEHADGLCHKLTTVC
BLK SH2 domain (human), sequence (P51451 124-220): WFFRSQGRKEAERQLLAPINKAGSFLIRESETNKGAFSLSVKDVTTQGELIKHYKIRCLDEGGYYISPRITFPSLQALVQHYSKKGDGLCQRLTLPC
GRB10 SH2 domain (human), sequence (Q13322 493-574): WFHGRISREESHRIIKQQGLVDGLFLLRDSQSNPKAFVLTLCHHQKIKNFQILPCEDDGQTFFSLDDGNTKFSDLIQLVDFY
RASA1 N-terminal SH2 domain (human), sequence (P20936 whole entry, the tested form may be a part): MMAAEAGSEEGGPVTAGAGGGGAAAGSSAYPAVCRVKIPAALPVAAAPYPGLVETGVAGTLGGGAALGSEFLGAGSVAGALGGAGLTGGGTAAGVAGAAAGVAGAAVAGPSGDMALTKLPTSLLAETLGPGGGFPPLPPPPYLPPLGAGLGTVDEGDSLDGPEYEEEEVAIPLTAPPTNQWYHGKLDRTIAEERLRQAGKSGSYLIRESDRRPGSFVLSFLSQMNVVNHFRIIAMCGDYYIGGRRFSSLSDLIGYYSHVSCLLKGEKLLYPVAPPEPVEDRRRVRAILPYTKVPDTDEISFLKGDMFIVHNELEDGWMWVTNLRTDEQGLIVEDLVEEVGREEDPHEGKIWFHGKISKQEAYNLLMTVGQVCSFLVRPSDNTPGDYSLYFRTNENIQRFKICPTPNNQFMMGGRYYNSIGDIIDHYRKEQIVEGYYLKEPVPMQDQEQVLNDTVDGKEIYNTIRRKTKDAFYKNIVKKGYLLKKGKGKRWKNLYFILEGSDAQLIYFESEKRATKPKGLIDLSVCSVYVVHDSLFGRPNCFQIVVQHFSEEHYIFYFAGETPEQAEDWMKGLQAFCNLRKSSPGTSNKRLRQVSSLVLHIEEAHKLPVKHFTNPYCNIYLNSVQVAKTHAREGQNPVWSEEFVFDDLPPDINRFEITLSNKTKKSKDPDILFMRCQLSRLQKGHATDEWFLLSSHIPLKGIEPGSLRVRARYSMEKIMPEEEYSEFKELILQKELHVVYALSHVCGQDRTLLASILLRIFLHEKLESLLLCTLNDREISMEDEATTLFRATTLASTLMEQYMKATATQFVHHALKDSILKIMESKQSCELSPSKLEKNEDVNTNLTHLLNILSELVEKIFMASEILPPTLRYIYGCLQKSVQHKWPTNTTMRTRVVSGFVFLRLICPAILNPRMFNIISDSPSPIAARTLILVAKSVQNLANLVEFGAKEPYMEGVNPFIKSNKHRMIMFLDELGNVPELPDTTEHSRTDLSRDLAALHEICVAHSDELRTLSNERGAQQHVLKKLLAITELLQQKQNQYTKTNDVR
PIK3R2 tandem SH2 domains (human), sequence (O00459 whole entry, the tested form may be a part): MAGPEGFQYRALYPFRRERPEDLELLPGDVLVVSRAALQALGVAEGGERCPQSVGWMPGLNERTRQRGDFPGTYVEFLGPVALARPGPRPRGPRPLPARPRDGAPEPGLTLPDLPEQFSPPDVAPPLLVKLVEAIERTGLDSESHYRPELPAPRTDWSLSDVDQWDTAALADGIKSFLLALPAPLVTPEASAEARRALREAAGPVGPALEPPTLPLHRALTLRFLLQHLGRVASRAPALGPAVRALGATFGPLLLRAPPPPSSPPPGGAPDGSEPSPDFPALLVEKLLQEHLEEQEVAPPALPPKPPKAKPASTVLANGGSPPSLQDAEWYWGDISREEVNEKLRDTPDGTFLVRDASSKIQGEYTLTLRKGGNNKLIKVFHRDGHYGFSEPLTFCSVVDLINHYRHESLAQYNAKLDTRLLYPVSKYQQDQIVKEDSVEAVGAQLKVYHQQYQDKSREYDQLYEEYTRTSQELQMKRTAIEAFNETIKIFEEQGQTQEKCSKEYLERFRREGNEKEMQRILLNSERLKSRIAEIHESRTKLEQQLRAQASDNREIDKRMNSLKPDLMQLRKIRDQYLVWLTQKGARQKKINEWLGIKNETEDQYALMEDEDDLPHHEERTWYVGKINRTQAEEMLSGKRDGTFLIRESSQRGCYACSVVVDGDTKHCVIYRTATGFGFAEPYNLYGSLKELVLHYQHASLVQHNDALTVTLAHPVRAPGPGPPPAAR

Consider “ErbB4 pY733 phosphopeptide (18-mer), rhodamine-labelled, for protein microarrays”, for which the Kd in [1] is 1.37 µM and 1.73 µM and 0.268 µM; in assay [2], 0.852 µM; in assay [3] it was 1.27 µM; in [4] it was 2.21 µM; in [5], 1.24 µM; in assay [6], 0.724 µM. For the same substance, the Kd was 0.438 µM in assay [7]; 7.82 µM and 10.5 µM in assay [8]; 0.177 µM in [9]; 10.4 µM in assay [10]; 0.685 µM in [11]; 1.18 µM in [12]. The Kd is 0.823 µM and 1.61 µM and 1.68 µM in assay [13]; 0.404 µM and 1.28 µM and 1.34 µM in assay [14]; 0.603 µM and 0.79 µM and 0.912 µM in assay [15]; 9.36 µM in [16]; 7.66 µM in [17]; 2.7 µM and 8.5 µM in assay [18]. Also, the Kd is 3.04 µM and 3.45 µM and 0.803 µM in [19]; 1.18 µM and 1.17 µM and 0.421 µM in [20]; 1.53 µM and 1.52 µM and 0.404 µM in [21].
“ErbB4 pY1221 phosphopeptide (18-mer), rhodamine-labelled, for protein microarrays”: the Kd in assay [22] is 0.25 µM; in assay [1], 0.906 µM and 0.283 µM; in assay [23], 1.15 µM and 1.16 µM and 0.583 µM; in assay [24] it was 4 µM; in assay [25] it was 0.419 µM; in [26], 64.5 µM. In addition, the Kd in assay [27] was 0.107 µM; in assay [3] it was 0.234 µM; in assay [28], 0.07 µM; in assay [4], 0.994 µM; in [29], 0.211 µM; in assay [30], 1.34 µM. Further, the Kd is 0.544 µM in [8]; 1.25 µM and 1.38 µM in [31]; 0.766 µM in assay [13]; 0.605 µM in assay [15]; 2.36 µM and 10.9 µM and 1.24 µM in assay [32]; 1.19 µM in [18]. In addition, the Kd was 0.443 µM in assay [33]; 15.6 µM and 9.49 µM in [19]; 0.811 µM and 1.29 µM and 0.285 µM in assay [34]; 0.323 µM in assay [35]; 1.32 µM and 0.818 µM in [20]; 0.791 µM in assay [21].
Turning to “PIK3R1 tandem SH2 domains (from UniProt P27986 1-724) (domain or fragment)”, the Kd in [36] stood at 1.59 µM.
